IC50 and Specific activity data for one molecule are collected here from patent publication US20200181597A1, “Composition and Application of Arginine-depleting Agents for Cancer, Obesity, Metabolic Disorders, and Related Complications and Comorbidities” (THE HONG KONG POLYTECHNIC UNIVERSITY, priority 2018, published 2020).

The test system of one data set is HT29. Description: cells. The conditions noted are these: HT29, Day 3. The protocol: (§1) The in vitro efficacy of ABD and rhArg fusion protein was tested on human colon cancer cell lines. Human colon cancer cell lines (HCT116, LOVO and HT29) were seeded in 96-well plate at densities of 5×10^3 cells/well. After 1 day of incubation, the culture medium was replaced with medium containing different concentrations (2, 0.4, 0.08, 0.016 and 0.0032 U/ml) of N-ABD094-rhArg (SEQ ID NO: 50). MTT assay was conducted at Day 3 [3 days after N-ABD094-rhArg (SEQ ID NO: 50) treatment] to determine the IC50 values. The culture medium was replaced with MTT solution (1 mg/ml) (Invitrogen) and incubated at 37° C. for 4 h. After incubation, MTT solution was replaced with dimethyl sulfoxide (DMSO), and the absorbance at 570 nm was measured with a reference of 650 nm. The cell viability was determined by dividing the absorbance of N-ABD094-rhArg-treated cells by the average absorbance of untreated cells. […] Three independent sets of experiments (n=3) were performed for each cell line.
(§2) MTT assay was conducted at Day 3. Three independent sets of experiments (n=3) were performed for each cell line.
(§3) For drug-combination assay, a non-constant ratio analysis was performed (Hastak et al., 2010, Cancer Res. 70(20):7970-7980). Colon cancer cells were seeded and after 1 day of incubation, the culture medium was replaced with medium containing different concentrations of N-ABD094-rhArg (SEQ ID NO: 50) (2, 0.4, 0.08, 0.016, 0.0032 U/ml) combined with fixed amount of CQ according to its IC50. MTT assay was conducted at Day 3. The combination index (CI) of combined N-ABD094-rhArg (SEQ ID NO: 50) and CQ treatment was analyzed by software CalcuSyn version 2.1. Three independent sets of experiments (n=3) were performed for each cell line.

The next data set deals with LOVO. Description: cells. The conditions noted are these: LOVO, Day 3. On the procedure: as §1, §2, §3
A further data set concerns HCT116. Description: cells. The conditions noted are these: HCT116, Day 3. The protocol: as §1, §2, §3
The nature of data set [1]: Arginase specific activity, DAMO colorimetric assay. The format is biochemical. The conditions noted are these: 37° C., pH 7.4, purified preparation. The source says:
The arginase activity of the fusion proteins described herein can be substantially the same, lower, or higher than the activity of the arginase polypeptide from which it is derived. One unit of arginase activity is defined as the amount of fusion protein [e.g., BHA (SEQ ID NO; 75), BAH (SEQ ID NO: 76), N-ABD-rhArg (SEQ ID NO: 49), or N-ABD094-rhArg (SEQ ID NO: 50)] or arginase [e.g., BCA (SEQ ID NO: 70)] that catalyzes the production of 1 μmol of urea per min under standard assay conditions. The specific activity of the enzyme is expressed as activity units per mg of protein. Under standard diacetylmonoxime (DAMO) assay conditions (37° C., pH 7.4), the fusion proteins can have a specific activity that is about 5%, about 10%, about 15%, about 20%, about 25% about 30%, about 35% or about 40% lower or higher than the corresponding arginase polypeptide which it incorporates. In certain embodiments, fusion proteins can have a specific activity that is about 5% to about 40%, about 10% to about 40%, about 10% to about 35%, about 10% to about 30%, about 20% to about 30%, about 20% to about 35%, about 15% to about 30%, about 15% to about 25%, or about 10% to about 20% lower or higher than the corresponding arginase polypeptide which it incorporates.
One unit of enzyme activity is defined as the amount of enzyme (BCA, BHA or BAH) that catalyzes the production of 1 μmol urea per min under standard assay conditions. Specific activity of the enzyme is expressed as activity units per mg of protein.
Briefly, a serial dilution of 0.3 mL BCA solutions together with 0.15 mL water and 720 mM arginine substrate at pH 7.4 was pre-incubated separately at 37° C. for 10 min. The enzymatic reaction was carried out by adding 0.3 mL arginine substrate to the pre-incubated enzyme solutions. […]
The urea formed from the above reaction was quantified using the DAMO direct colorimetric method described by World Health Organization (WHO). […] The absorbance at 540 nm was measured. […]

B1: N-ABD094-rhArg: albumin binding domain ABD094 fused N-terminally to recombinant human arginase I, SEQ ID NO: 50 (protein)
chain: MHHHHHHDEAVDANSLAEAKEAANAELDSYGVSDFYKRLIDKAKTVEGVEALKDAILAALPSGSNNNNNNGSGGMSAKSRTIGIIGAPFSKGQPRGGVEEGPTVLRKAGLLEKLKEQECDVKDYGDLPFADIPNDSPFQIVKNPRSVGKASEQLAGKVAEVKKNGRISLVLGGDHSLAIGSISGHARVHPDLGVIWVDAHTDINTPLTTTSGNLHGQPVSFLLKELKGKIPDVPGFSWVTPCISAKDIVYIGLRDVDPGEHYILKTLGIKYFSMTEVDRLGIGKVMEETLSYLLGRKKRPIHLSFDVDGLDPSFTPATGTPVVGGLTYREGLYITEEIYKTGLLSGLDIMEVNPSLGKTPEEVTRTVNTAVAITLACFGLAREGNHKPIDYLNPPK
modifications: Mn2+; N-ABD094-rhArg, Synthesized in the Lab
For B1, the IC50 is 0.58 U/ml with HT29, 0.38 U/ml in the data set with LOVO and 0.22 U/ml in the data set on HCT116. Further, in data set [1], the Specific activity worked out at 184 U/mg.
